# Patent publication US20020164721A1, “Design of a polyepitopic construct for the induction of HLA-A2.1 restricted HIV 1 specific CTL responses using HHD mice” (priority 1999, published 2002)
# What was measured:
# [1] = biological target: T1, HLA-A2.1 molecules on T2 (TAP-, HLA-A2.1+) cells (human); assay: T2 cells, HLA-A2.1 stabilisation, BB7.2 immunofluorescence FACS
# [2] = biological target: T1, HLA-A2.1 molecules on T2 (TAP-, …); assay: T2 cells, decay of surface peptide-HLA-A2.1 complexes, FACS
# [3] = biological target: T1, HLA-A2.1 molecules on T2 (TAP-, …); assay: T2 cells, HLA-A2.1 stabilisation, indirect immunofluorescence FACS
Binder,relative affinity (RA) (ratio to reference peptide HIV 1 rt.476) [1],DC50 (half-life of peptide-HLA-A2.1 complexes) [2] [h],relative affinity (RA) (ratio to reference peptide I9V) [3]
VLYRYGSFSV (modifications not checked) [gp100.476],10,,
ILTVILGVL (modifications not checked) [Melan-A/MART-1.32],21.1,,
MLLAVLYCL (modifications not checked) [Tyrosinase.1],> 60,,
YMDGTMSQV (modifications not checked) [Tyrosinase.368-D],2.27,> 6,
YMNGTMSQV (modifications not checked) [Tyrosinase.368-N],2.2,> 8,
VLPDVFIRC (modifications not checked) [NA17-A.nt38],1.52,> 8,
FLWGPRALV (modifications not checked) [MAGE-3.271],,6,
RMPEAAPPV (modifications not checked) [p53.65],0.91,,
IISAVVGIL (modifications not checked) [Her2/neu.654],,4,
LLDTGADDTV (modifications not checked) [L10V],,< 2,10
LLDGTATLRL (modifications not checked) [gp100.457],1.65,,
KLTPLCVSL (modifications not checked) [K9L],,> 6,1.35
